Measurements published in article PMC10085042 (PLOS ONE, 2023).

B1: anti-nsp9 VHH_(2nsp23) (VHH)
VHH: QVQLQESGGGLVQPGGSLRLSCAASGLAFSMYTMGWFRQAPGKEREFVAMIISSGDSTDYADSVKGRFTISRDNGKNTVYLQMDSLKPEDTAVYYCAAPKFRYYFSTSPGDFDSWGQGTQVTVSS
B2: SARS-CoV-2 nsp9 (natural protein, UniProt P0DTD1 4141-4253, looked up)
chain: NNELSPVALRQMSCAAGTTQTACTDDNALAYYNTTKGGRFVLALLSDLQDLKWARFPKSDGTGTIYTELEPPCRFVTDTPKGPKVKYLYFIKGLNNLNRGMVLGSLAATVRLQ
notes: also called nsp9_(COV19); Nsp9_(COV19)

How the values were obtained:
SARS-CoV-2 nsp9 = molecular target: T1, SARS-CoV-2 nsp9 (SARS-CoV-2, UniProt P0DTD1); test: crystal structure; conditions: both partners purified
T1 construct: also called nsp9_(COV19); Nsp9_(COV19)

crystal structure = molecular target: the molecule itself; test: crystal structure

Row | Binder | binding result (SARS-CoV-2 nsp9) | binding result (crystal structure)
1 | B1 | binds | –
2 | B2 | – | binds
